This note sets out measurements from PMC12203670.

For orientation: stoichiometry N means the number of molecules, sites or subunits per partner or assembly.

Where “and” joins values, the source holds several entries; their conditions need not be identical. Identical values can stand only once.

The target in the test is PKM2 (pyruvate kinase M2), endogenous in mouse heart (mouse (endogenous in heart)) (UniProt P52480). Nature of the test: cross-linking; cross-linking of cardiac PKM2, Western blot of monomer, dimer and tetramer; hearts of Ctrl and cKO mice after 3-h reperfusion, with TEPP-46 or vehicle, or with Ad-Mtx2. (In general: A western blot detects proteins with antibodies after separation by electrophoresis.)

PKM2 (pyruvate kinase M2), endogenous in mouse heart, P52480 1-531 (enzyme; other documents disagree on this pair), sequence (P52480 whole entry): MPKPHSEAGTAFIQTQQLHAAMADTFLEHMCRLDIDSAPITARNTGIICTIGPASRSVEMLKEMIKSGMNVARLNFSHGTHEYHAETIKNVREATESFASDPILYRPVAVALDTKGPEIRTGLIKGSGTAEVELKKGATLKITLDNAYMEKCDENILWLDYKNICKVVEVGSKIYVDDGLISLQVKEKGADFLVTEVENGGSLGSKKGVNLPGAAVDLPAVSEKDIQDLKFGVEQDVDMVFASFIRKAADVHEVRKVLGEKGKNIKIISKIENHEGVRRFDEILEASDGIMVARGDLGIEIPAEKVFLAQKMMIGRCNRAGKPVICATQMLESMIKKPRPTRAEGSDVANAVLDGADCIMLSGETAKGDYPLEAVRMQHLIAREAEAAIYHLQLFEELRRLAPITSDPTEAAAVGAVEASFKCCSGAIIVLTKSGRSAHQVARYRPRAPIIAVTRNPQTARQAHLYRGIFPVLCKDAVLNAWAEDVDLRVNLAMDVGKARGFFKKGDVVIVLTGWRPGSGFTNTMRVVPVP

“PKM2 (pyruvate kinase M2), endogenous in mouse heart, P52480 1-531 (enzyme; other documents disagree on this pair)”: the stoichiometry N is 4 and 2.
